From PMC4139204, “Insight into the Architecture of the NuRD Complex” (The Journal of Biological Chemistry, 2014)

Assays:
Nurf55 WT [1] = assay: Protein A affinity purification with wild-type Nurf55 bait, mass spectrometry; format: cell-based, D. melanogaster (Dmel-2 cells); details: for Number of peptides identified, Nurf55 WT: IgG beads, Dmel-2 cells; for interaction with Nurf55: wild-type Nurf55
Source text: (§1) Full-length Nurf55 (also known as p55 and CAF1) is the D. melanogaster homolog of RbAp46/p48. It was PCR-amplified and cloned into the pDONR221 vector via the BP (recombination and insertion of the att B sequence into the att P recombination site) reaction using standard Gateway Technology (Invitrogen) protocols. Five residues in this plasmid were mutated (L35Y, E361Q, D362N, E364Q, D365N) to create pDONR-Nurf55mut using the QuikChange Lightning Site-directed Mutagenesis kit (Agilent Technologies). The resulting wild-type and mutant clones were verified by sequencing. Primer sequences for the constructs are available on request. The Nurf55 genes were then transferred into destination vectors for the inducible expression of protein A- or GFP-tagged fusion proteins by the LR (insertion of sequences containing att L sites into destination att R sites) reaction according to the manufacturer's instructions.
(§2) D. melanogaster Dmel-2 cell lines stably expressing either tagged wild-type or mutant Nurf55 (containing the L35Y, E361Q, D362N, E364Q, and D365N mutations) were established. Affinity purification of protein A- and GFP-tagged bait and interacting proteins followed by mass spectrometry identification was carried out as previously reported ([39][–][41]).
(§3) Cell lines stably expressing protein A-tagged fusion proteins of either wild-type Nurf55 or the mutant (Nurf55mut) were generated. RbAp46 shares >90 and 85% sequence identity with RbAp48 and NuRF55, respectively. […] Cellular proteins that interact with protein A-tagged Nurf55/Nurf55mut were then isolated by affinity purification on IgG beads and identified by mass spectrometry as described previously ([39], [40]).

Nurf55 MUT [2] = assay: Protein A affinity purification with mutant Nurf55 bait, mass spectrometry; format: cell-based, D. melanogaster (Dmel-2 cells); details: for Number of peptides identified, Nurf55 MUT: IgG beads, Dmel-2 cells, mutant E361Q, D362N, E364Q, D365N, L35Y
Source text: as §1, §2, §3

Nurf55 WT [3] = assay: GFP affinity purification with wild-type Nurf55 bait, mass spectrometry; format: cell-based, D. melanogaster (Dmel-2 cells); details: anti-GFP nanobody beads, Dmel-2 cells, triplicate, lowest number of unique peptides listed
Source text: as §1, §2

Nurf55 MUT [4] = assay: GFP affinity purification with mutant Nurf55 bait, mass spectrometry; format: cell-based, D. melanogaster (Dmel-2 cells); details: anti-GFP nanobody beads, Dmel-2 cells, triplicate, lowest number of unique peptides listed, mutant E361Q, D362N, E364Q, D365N, L35Y
Source text: as §1, §2

[5] = tested on: RbAp48 binding to GST-H4-(1–48); assay: Competition pulldown: GST-H4-(1–48) pulls down RbAp48 in absence and presence of full-length MTA1; parameters: species or system human; details: GST-H4-(1–48) on glutathione beads, in vitro translated 35S-labeled RbAp48, absence and presence of full-length MTA1
Procedure: The structural data provide clear evidence that histone H4 and MTA1 bind mutually exclusively to RbAp48. […] Competition-binding experiments were performed to assess whether full-length MTA1 might inhibit the interaction of RbAp48 with H3 or FOG1 peptides and to confirm that H4 and MTA1 bind mutually exclusively to RbAp48. GST-H4-(1–48) was expressed in bacteria, immobilized onto glutathione beads, and used to pull down RbAp48 in the absence and presence of full-length MTA1 (Fig. 7A). In a complementary experiment (Fig. 7B), in vitro translated FLAG-RbAp48 was immobilized on anti-FLAG beads and used to pull down MTA1 in the absence and presence of histone H4-(1–48).
FIGURE 7. […] A, pulldown showing the binding of in vitro translated ^35S-labeled RbAp48 to GST-histone H4-(1–48) (immobilized on glutathione beads) in the absence and presence of in vitro translated MTA1. B, pulldown showing the binding of in vitro translated ^35S-labeled MTA1 to FLAG-RbAp48 (immobilized on anti-FLAG beads) in the absence and presence of histone H4-(1–48). C, pulldown assays showing the effect of adding increasing amounts of FOG1-(1–15) peptide to a complex formed between in vitro translated ^35S-labeled FLAG-RbAp48 (immobilized on anti-FLAG beads) and in vitro translated ^35S-labeled full-length MTA1 or MTA1-(530–715). […]

| Molecule | Number of peptides identified, Nurf55 WT (Nurf55 WT [1]) | interaction with Nurf55 (Nurf55 WT [1]) | Number of peptides identified, Nurf55 MUT (Nurf55 MUT [2]) | interaction with Nurf55mut (Nurf55 MUT [2]) | Number of peptides identified, Nurf55 WT (Nurf55 WT [3]) | Number of peptides identified, Nurf55 MUT (Nurf55 MUT [4]) | competition of MTA1 with histone H4 for RbAp48 [5] |
| --- | --- | --- | --- | --- | --- | --- | --- |
| MTA-like: known subunit of the D. melanogaster NuRD complex (protein) MATNMYRVGDYVYVETTPNSPYLIRRIEELNKNQTGNVEAKVMCFYRRRDLPNPLVQLADKHQLATAEDSPLATKLKKTWLRTPVSEEQAAQAVLDPSIAALDEERTSPTQTSGGGGSATGNSGSNSSGTSNNNSSSTAIGGGAGGSGGAGGDAEKGEALTSKQRYQIKHRELFLSRQVESIPATQIRGKCSVTLLNETESLQSYLNKDDTFFYCLVFDPNQKTLLADKGEIRVGSRYQCDIPAKLKDTATDDRKLEELESLVWTPEHSLTDRKIDQFLVVSRSIGTFARALDCSSSVKQPSLHMSAAAASRDITLFHAMNILHKHEYSIEESMSSLVPSTGPVLCRDEIEDWSASEANLFEEALEKYGKDFNDIRQDFLPWKTLKQIIEYYYMWKTTDRYVQQKRVKAVEAELKLKQVYIPQYNNNGKGNGTSTKAGGGIYNGTTNGSTDLSSNGKPCESCGTTKSSQWNSVSSGHSTSRLCLSCWEYWRRYGSMKSATKGDAGEGDAKKKSSSAASTPTATLAGLATTPTAVVDLNDDEKISDLTNRQLHRCSIVNCGKEFKLKTHLARHYAQAHGIAISSGSPRPIMKTRTAFYLHTNPMTRVARAICRSIVKPKKAARQSAYAINAMLVKQEFTNRISGKSQAEIKKLLLLKPKDRGSVTKIANRLGAPGSGPHEWLVLTPKDKMPLPAVVSFPKPPKAPDGSLVYDRVPNKSPDVVAVPADKELTIIPTQATSTIRKRAHEDQQLNGTEVTIVPSGPPAKRPNKDPMPSHCPSPEQFAAMMAASGQPLSRHHLNGKQKIAQMARGGNGRKQVISWMDAPDDVYFRANDTHKKTRKILSAVDLRRAARKPWRTLPIKPAAPEPSSRPIESQIVILD | 57 | pulled down by Nurf55 | 0 | not observed | 79 | 6 |  |
| full-length MTA1: in vitro translated full-length MTA1; human MTA1 Uniprot Q13330 (protein, UniProt Q13330 1-715, looked up, full-length, in vitro translated full-length MTA1; human MTA1 Uniprot Q13330) MAANMYRVGDYVYFENSSSNPYLIRRIEELNKTANGNVEAKVVCFYRRRDISSTLIALADKHATLSVCYKAGPGADNGEEGEIEEEMENPEMVDLPEKLKHQLRHRELFLSRQLESLPATHIRGKCSVTLLNETESLKSYLEREDFFFYSLVYDPQQKTLLADKGEIRVGNRYQADITDLLKEGEEDGRDQSRLETQVWEAHNPLTDKQIDQFLVVARSVGTFARALDCSSSVRQPSLHMSAAAASRDITLFHAMDTLHKNIYDISKAISALVPQGGPVLCRDEMEEWSASEANLFEEALEKYGKDFTDIQQDFLPWKSLTSIIEYYYMWKTTDRYVQQKRLKAAEAESKLKQVYIPNYNKPNPNQISVNNVKAGVVNGTGAPGQSPGAGRACESCYTTQSYQWYSWGPPNMQCRLCASCWTYWKKYGGLKMPTRLDGERPGPNRSNMSPHGLPARSSGSPKFAMKTRQAFYLHTTKLTRIARRLCREILRPWHAARHPYLPINSAAIKAECTARLPEASQSPLVLKQAVRKPLEAVLRYLETHPRPPKPDPVKSVSSVLSSLTPAKVAPVINNGSPTILGKRSYEQHNGVDGNMKKRLLMPSRGLANHGQARHMGPSRNLLLNGKSYPTKVRLIRGGSLPPVKRRRMNWIDAPDDVFYMATEETRKIRKLLSSSETKRAARRPYKPIALRQSQALPPRPPPPAPVNDEPIVIED |  |  |  |  |  |  | compete for the same binding surface on RbAp48 |
| Rpd3: known subunit of the D. melanogaster NuRD complex, Rpd3 (dHDAC) (protein) MQSHSKKRVCYYYDSDIGNYYYGQGHPMKPHRIRMTHNLLLNYGLYRKMEIYRPHKATADEMTKFHSDEYVRFLRSIRPDNMSEYNKQMQRFNVGEDCPVFDGLYEFCQLSAGGSVAAAVKLNKQASEICINWGGGLHHAKKSEASGFCYVNDIVLGILELLKYHQRVLYIDIDVHHGDGVEEAFYTTDRVMTVSFHKYGEYFPGTGDLRDIGAGKGKYYAVNIPLRDGMDDDAYESIFVPIISKVMETFQPAAVVLQCGADSLTGDRLGCFNLTVKGHGKCVEFVKKYNLPFLMVGGGGYTIRNVSRCWTYETSVALAVEIANELPYNDYFEYFGPDFKLHISPSNMTNQNTSEYLEKIKNRLFENLRMLPHAPGVQIQAIPEDAINDESDDEDKVDKDDRLPQSDKDKRIVPENEYSDSEDEGEGGRRDNRSYKGQRKRPRLDKDTNSNKASSETSSEIKDEKEKGDGADGEESTASNTNSNNNSNNKSDNDAGATANAGSGSGSGSGAGAKGAKENNI | 8 | pulled down by Nurf55 | 0 | not observed | 36 | 9 |  |
